In general, Kd refers to the equilibrium constant for the complex coming apart.

Sequences and labels used below:
B1: Red1 residues 288-345 (Pla1 interaction region), purified [S. pombe] / C-terminal RRM domain of Pla1 (Pla1RRM, residues 352-566), purified [S. pombe] (parent)
chain 1: ISLPLLKQDDWLSSSKPFGSSTPNVVIEFDSDDDGDDFSNSKIEQSNLEKPPSNSENG
chain 2: DFFHRYKHYLTITAAAKTAEAQLKWAGLVESKLRHLVTRLELVDAIALAHPFNKGFDKVYNCSSEEEAQQVASGVTLEVAYESTDHEKLANDTVNEEKADNTESKADGSENGEKQIFPVYTTTCYIGLELEKKKGHPIKRLDISWPTQEFYELCKKWDKYDDTLMNVFIKNTKNTALPDEVFEPGEERPKATKKRSTADTAHSTEQLKRQKVSTA

In one assay the parent is B1. As to the kind of experiment: ITC. To be noted: with C-terminal RRM domain of Pla1 (Pla1RRM, residues 352-566).
On to chain 1 ISLPLLKQDDWLSSSKPFGSSTPNVRIEFDSDDDGDDFSNSKIEQSNLEKPPSNSENG [chain 1 V26R], for which the dissociation constant Kd turned out to be 17.9 µM.

The same assay, now with this note: with Red1 residues 288-345 (Pla1 interaction region).
On to chain 2 DFFHRYKHYLTITAAAETAEAQLKWAGLVESKLRHLVTRLELVDAIALAHPFNKGFDKVYNCSSEEEAQQVASGVTLEVAYESTDHEKLANDTVNEEKADNTESKADGSENGEKQIFPVYTTTCYIGLELEKKKGHPIKRLDISWPTQEFYELCKKWDKYDDTLMNVFIKNTKNTALPDEVFEPGEERPKATKKRSTADTAHSTEQLKRQKVSTA [chain 2 K17E], for which the dissociation constant (Kd) turned out to be 17.8 µM.
The same measure, in the same setting: the result for chain 2 DFFHRYKHYLTITAAAKTAEAQLKWAGLVESKLRHLVTRLELVDAIALAHPFNKGFDKVYNCSSEEEAQQVASGVTLEVAYESTDHEKLANDTVNEEKADNTESKADGSENGEKQIFPVYTTTCYIGLELEKKKGHPIKRLDISWPTQEFYELCKKWDKYDDTLMNVFIKNTKNTALPDEVFEPGEERPKATKKRSTADTAHSTEQLEEQEVSTA [chain 2 K208E R209E K211E] reads 2.8 µM.

The record behind these values is PMC9922296, “Mechanistic insights into RNA surveillance by the canonical poly(A) polymerase Pla1 of the MTREC complex” (Nature Communications, 2023).
